Reference: patent publication US20210214454A1

Legend:
[1] = target: cynomolgus CD40 protein expressed on CHO-S cells (cynomolgus) (UniProt G7PG38); assay: flow cytometry on CHO-S cells transiently expressing cynomolgus CD40; AF647 anti-human IgG (H+L) secondary; GeoMean RL1-H
[2] = target: human CD40 protein expressed on cells (human) (UniProt P25942); assay: flow cytometry on CHO-S cells transiently expressing human CD40; AF647 anti-human IgG (H+L) secondary; GeoMean RL1-H
human CD40 protein expressed on cells (human), sequence (P25942 21-277 limits assumed): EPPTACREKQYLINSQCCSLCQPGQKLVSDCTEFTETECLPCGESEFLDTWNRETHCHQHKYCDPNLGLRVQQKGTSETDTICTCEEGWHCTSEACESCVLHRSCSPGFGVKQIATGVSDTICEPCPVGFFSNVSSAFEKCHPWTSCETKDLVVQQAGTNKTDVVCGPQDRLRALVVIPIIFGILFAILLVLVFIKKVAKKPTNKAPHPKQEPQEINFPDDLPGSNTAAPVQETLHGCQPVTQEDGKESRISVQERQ

cynomolgus CD40 protein expressed on CHO-S cells (cynomolgus), sequence (G7PG38 entry or part of it): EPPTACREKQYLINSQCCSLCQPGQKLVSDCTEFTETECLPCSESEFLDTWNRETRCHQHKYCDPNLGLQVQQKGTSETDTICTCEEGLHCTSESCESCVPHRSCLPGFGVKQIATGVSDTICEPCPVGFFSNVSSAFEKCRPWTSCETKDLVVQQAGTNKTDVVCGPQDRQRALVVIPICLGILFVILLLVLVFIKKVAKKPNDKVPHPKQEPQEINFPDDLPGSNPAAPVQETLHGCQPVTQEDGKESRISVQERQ

- EC50 (read off the curve) [1]: 0.01 µg/mL
- EC50 (read off the curve) [2]: 0.01 µg/mL
B1: ADC-1013 analogue (antibody, INN chains, looked up, IgG1, V domains shown)
VH: EVQLLESGGGLVQPGGSLRLSCAASGFTFSTYGMHWVRQAPGKGLEWLSYISGGSSYIFYADSVRGRFTISRDNSENALYLQMNSLRAEDTAVYYCARILRGGSGMDLWGQGTLVTVSS
VL: QSVLTQPPSASGTPGQRVTISCTGSSSNIGAGYNVYWYQQLPGTAPKLLIYGNINRPSGVPDRFSGSKSGTSASLAISGLRSEDEADYYCAAWDKSISGLVFGGGTKLTVL
